Results on four molecules are retold here after patent US20260263614A1, “ANTIBODY DRUG CONJUGATES THAT BIND CDCP1 AND USES THEREOF” (Pheon Therapeutics Ltd, priority 2022, published 2026).

The nature of data set [1]: Comparative repeat-dose rat toxicity study. Format: in vivo. Conditions: DAR 8 on a Trastuzumab backbone, 20 or 60 mg/kg.
Data set [2] is described as follows: Control incubation in buffer without S9. Conditions: 5 μM ADC, pH 5.0. The protocol: Samples were analysed using LC/QE-orbitrap-MS.
The control incubations include each ADC without the addition of S9.

The target of data set [3] is T1, Papain (a Cathepsin B surrogate) (Carica papaya, UniProt P00784).
T1 sequence (P00784 134-345): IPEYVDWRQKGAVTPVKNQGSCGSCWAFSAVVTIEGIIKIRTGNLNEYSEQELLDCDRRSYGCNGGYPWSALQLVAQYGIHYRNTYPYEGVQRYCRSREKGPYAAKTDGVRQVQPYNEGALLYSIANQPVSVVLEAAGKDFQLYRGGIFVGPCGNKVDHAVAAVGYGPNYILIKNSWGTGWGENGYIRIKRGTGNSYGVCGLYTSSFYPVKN
Conditions: reaction with papain, 24 hours and 96 hours.

For data set [4] the following is noted: comparison value of another MMAE ADC; cited from earlier work.
For data set [5], the target named is T2, huCDCP1(F30-T667 Q525)-8×His_T3 (human, UniProt Q9H5V8 30-667).
T2 construct: The construct name gives the limits F30-T667 and Q525; also called recombinant CDCP1 ECD; CDCP1 ECD
Description: SPR, recombinant CDCP1 ECD. A general note: In SPR one partner is held on a chip, and binding of the other changes the refractive index at the surface.

Data set [6] concerns the target T3, CDCP1 on antigen-positive cells (A427; CDCP1+ cells MDA-MB-468, PC3, DU145) (Homo sapiens (Human), UniProt Q9H5V8 30-836, On the FIG. 45 cell lines, part of the CDCP1 is proteolytically cleaved in the extracellular domain; the cleavage site is not stated. The uncleaved mature protein is given.).
T3 construct: also called the antigen; antigen positive cell-line (A427)
The data set is described as follows: binding to CDCP1+ cells (cell line not given), % Maximum against log concentration, fitted curve.

In data set [7] the target is T2, huCDCP1(F30-T667 Q525)-8×His_T3. The data set is described as follows: SPR, huCDCP1(F30-T667 Q525)-8×His_T3 as analyte; mAb lot T12.
Data set [8] has as its system MDA-MB-468, PC3, DU145 and OVMZ-6 cells. Description: Binding to cells after CDCP1 cleavage. Conditions: mAbs binding membrane proximal or distal regions of CDCP1. From the text:
FIG. 45E is an image of polyacrylamide gel binding assay. […] The sequences of the light chain variable region, heavy chain variable region, and CDRs (SEQ ID NOs: 15-22) of “Sequence 2” can be found in Table 2B.

Regarding `CC[C@@]1(O)C(=O)OCc2c1cc1n(c2=O)Cc2c-1nc1cc(F)c(C)c3c1c2[C@@H](NC(=O)[C@H](C)NC(=O)[C@@H](NC(=O)CCOCCOCCOCCOCCOCCOCCOCCOCCNC(=O)CCN1C(=O)C=CC1=O)C(C)C)CC3` [Compound 30], the “changes in hemopoietic system (red cell parameters)” value in data set [1] was “negligible effects”. Further, the tolerability entry in data set [1] (IV once every 3 weeks, two doses) is reported as “well tolerated”. For the same molecule, the “LC/MS peak area of released payload (Exatecan; 4NH2-Exatecan; DXd; DM1, per ADC)” value in data set [2] (Buffer without S9, 180 min) is recorded as 26,179; in data set [2] (Buffer without S9, 360 min), 51,267; in data set [2] (Buffer without S9, 1440 min) it was 59,452. Besides, the rate of cleavage result in data set [3] was “slower rate compared to other TOPO1 inhibitors having Cathepsin B cleavage mechanisms”.
In the case of Adcetris, in data set [4], the “ADC cyno t1/2” value is 45 to 72 h.

B1: CDCP1 mAb (unconjugated IgG1 antibody targeted to CDCP1, Sequence 1) (antibody, V domains shown)
VH: EVQLLESGGGLVQPGGSLRLSCAASGFTFSNYAMNWVRQAPGKGLEWVSAISGGGGSTYYADSVKGRFTISRDNSKNTLYLQMNSLRAEDTAVYYCAKESITMVRGVMDYYGMDVWGQGTTVTVSS
VL: DIQLTQSPSFLSASVGDRVTITCRASQGISSYLAWYQQKPGKAPKLLIYAASTLQGGVPSRFSGSGSGTEFTLTISSLQPEDFATYYCQHLNRFPRTFGQGTKVEIK
notes: IgG1; also called unconjugated CDCP1-mAb; unconjugated CDCP1 mAb
For B1, in data set [5], the Kd (usually the concentration at which binding is half-saturated) was about 1 nM. Further, the EC50 in data set [6] was found to be 0.207 µg/mL. Also, in data set [7], binding was put at a Kd of 0.8 nM; the koff (in general, the rate constant with which the complex falls apart) was 0.000468 s⁻¹; the kon (as a rule, the rate constant with which the complex forms) was 584000 M⁻¹ s⁻¹.

B2: mAbs-CDCPA1 Sequence 1: "mAbs-CDCPA1 Sequence 1 (proximal region)" antibody binding the membrane proximal region of CDCP1 (antibody, V domains shown)
VH: B1 VH
VL: B1 VL
As for B2, in data set [8], the “binding to cells with cleaved CDCP1” value is recorded as “did not show significant difference in binding to CDCP1+ cells”.
